Where no end group is shown, it is not given here. The star is where a group is joined. Dansyl = CN(C)c1cccc2c(S(=O)(=O)*)cccc12
What was measured:
[1] = biological target: engineered MATH domain of SPOP (Speckle-type POZ protein), residues 1-182, cysteine residues substituted to serine (UniProt O43791); experiment: stopped-flow fluorescence binding kinetics + other: stopped-flow fluorescence displacement; KD calculated by combining kon of the pseudo-first-order plots with koff of the displacement experiments; 298 K
[2] = biological target: engineered MATH domain of SPOP (Speckle-type POZ protein), residues 1-182, cysteine residues substituted to serine (UniProt O43791); experiment: stopped-flow fluorescence binding kinetics; pseudo-first-order; 2 µM MATH mixed with dansylated peptide, 2 to 10 µM Puc and MacroH2A, 2 to 40 µM PTEN; excitation 280 nm; 298 K; kobs against peptide concentration fitted to a line, kon from the slope
[3] = biological target: engineered MATH domain of SPOP (Speckle-type POZ protein), residues 1-182, cysteine residues substituted to serine (UniProt O43791); experiment: stopped-flow fluorescence displacement; preincubated complex of MATH domain and dansylated peptide (both 8 µM) mixed with an excess of nondansylated peptide (50 µM); 298 K; same buffer as the binding experiments; single exponential decay gives koff
[4] = substrate: SPOP MATH D131A (UniProt O43791); experiment: stopped-flow fluorescence binding kinetics; pseudo-first-order; 2 µM MATH mixed with dansylated peptide, 2 to 10 µM Puc and MacroH2A, 2 to 40 µM PTEN; excitation 280 nm; 298 K; kobs against peptide concentration fitted to a line, kon from the slope
[5] = substrate: SPOP MATH F134A (UniProt O43791); experiment: as above
[6] = substrate: SPOP MATH K130A (UniProt O43791); experiment: as above
[7] = substrate: SPOP MATH K135A (UniProt O43791); experiment: as above
[8] = substrate: SPOP MATH R71A (UniProt O43791); experiment: as above
[9] = substrate: SPOP MATH Y124A (UniProt O43791); experiment: as above
[10] = substrate: SPOP MATH Y88A (UniProt O43791); experiment: as above
[11] = substrate: SPOP MATH D131A (UniProt O43791); experiment: stopped-flow fluorescence displacement; preincubated complex of MATH domain and dansylated peptide (both 8 µM) mixed with an excess of nondansylated peptide (50 µM); 298 K; same buffer as the binding experiments; single exponential decay gives koff
[12] = substrate: SPOP MATH F134A (UniProt O43791); experiment: as above
[13] = substrate: SPOP MATH K130A (UniProt O43791); experiment: as above
[14] = substrate: SPOP MATH K135A (UniProt O43791); experiment: as above
[15] = substrate: SPOP MATH R71A (UniProt O43791); experiment: as above
[16] = substrate: SPOP MATH Y124A (UniProt O43791); experiment: as above
[17] = substrate: SPOP MATH Y88A (UniProt O43791); experiment: as above
[18] = biological target: engineered MATH domain of SPOP (Speckle-type POZ protein), residues 1-182, cysteine residues substituted to serine (UniProt O43791); experiment: other fluorescence titration; equilibrium; FRET from the tryptophans of SPOP MATH (excited at 280 nm, emission 300-400 nm) to the dansyl of the peptide; MATH at constant concentration (2 µM in the methods, 1 µM in the results), dansylated peptide 0 to 40 µM; 298 K; hyperbolic fit

Kd [1]: 1.4 µM
kon [2]: 1.9e+07 M⁻¹ s⁻¹
koff [3]: 26.1 s⁻¹
kon [4]: 1.82e+07 M⁻¹ s⁻¹
kon [5]: 9.4e+06 M⁻¹ s⁻¹
kon [6]: 1.3e+07 M⁻¹ s⁻¹
kon [7]: 6.3e+06 M⁻¹ s⁻¹
kon [8]: 8.8e+06 M⁻¹ s⁻¹
kon [9]: 6.71e+06 M⁻¹ s⁻¹
kon [10]: 1.44e+07 M⁻¹ s⁻¹
koff [11]: 241 s⁻¹
koff [12]: 15 s⁻¹
koff [13]: 123 s⁻¹
koff [14]: 45.2 s⁻¹
koff [15]: 34 s⁻¹
koff [16]: 78 s⁻¹
koff [17]: 302 s⁻¹
Kd [18]: 1.4 µM
Binder: Dansyl-DEVTSTTSSS [dansylated peptide mimicking Puc (region 96-105)]
